According to publication PMC6061880:

Experiments:
Test in all cases: EMSA
Details in all cases: 10 mM Tris-Cl pH 7.5, 10 mM MgCl2, 100 mM KCl, 0.5 ug/ul yeast RNA, 7.5% glycerol, SUPERase In; 5 nM RNA; 30 min at 37 C; 6% native PAGE at 4 C
[1] = tested on: RsmN (Pseudomonas aeruginosa)
[2] = biological target: RsmA (Pseudomonas aeruginosa) (UniProt O69078)
[3] = tested on: T1, RsmN (Pseudomonas aeruginosa), ORF:fe30c157
T1 sequence: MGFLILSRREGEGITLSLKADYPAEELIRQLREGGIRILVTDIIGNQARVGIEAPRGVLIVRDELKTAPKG

Sequence of RsmA (Pseudomonas aeruginosa) (O69078 whole entry): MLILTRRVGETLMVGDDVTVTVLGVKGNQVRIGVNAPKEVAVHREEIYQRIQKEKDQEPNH

Substance	Kd [1]	Kd [3]	binding [2]	also measured
5' CrcZ	112 nM			
GGAAACUCUGUCCGCUGUGAUGGAUAACGAAGCGGAUGAACUCGAGUUGCGGCGGGUGCUCGCAGCUUGCGGCGAGGAUGCCGAGCUGCGUUCCACCUGGUCGCGUUACCAGUUGGCGCGGUCCGUCAUGCACCGCGAGCCUACCCUGCCGAAGCUGGAUAUCGCUGCGGCGGUCUCUGCUGCCCUGGCCGACGAGGCCGCUCCGCCGAAAGCGGAGAAGGGACCGUGGCGGAUGGUCGGUCGGGGGGGGGUUUUUUUU [mucA internal RNA]		148 nM		Kd [2]: binds
GGACAAAAUAAGCAAAUGGAGCGUAUGACCAUGGACAAACCGGCCUCGCGGCAUUUCAGCGUCUUGAUCAUCGAUGAUGAACCCCAGGUGACCUCGGAACUCCGCGAACUGCUGGAAAACGGGGGGGGGUUUUUUUU [pprB leader RNA]		227 nM	binds	
GGCAUCAGCGACCAAAGCAAUCCGUUUGCUAUUGAACUCCCAGCCUGGGAGAUAUCCCUGAAGCGACUGGCUCAAGGGACGGGUCGACAAACAAAAACAACAAGCCCGAAAUCAUAAUAAAAACAAAGCACGCACCUACUUGGGGGGGGGUUUUUUUU [3' CrcZ]			binds	binding [3]: no binding
GGGUCAGGACAUUGCGCAGGAAGCGCCAAAGACAAUACGGAAACUCAGGGAAUCCACCAUGGAUGGUGGCGUAGCACGGAUGUCAGGAUAGAGGUCUGCAAAACCCCGCCCAAAAGGCGGGGGGGGGUUUUUUUU [RsmY full length]			binds	binding [3]: binds
GGUAACGACUCCAGCACAACAAAAACAAAAUCGCGGAGGCGCAGCUAACUGAUUCUUUUGGAGAGGAGUUGCUGUCGGGACCCGUCCCGCAGCCAGUCGGAAGAAGAAUAAAACUGCCUUGAGGCAGCGCACAGACUGGUUGGAUCGCUCGACGAUCAUGGCAGCAUCAGGGGGGGGGUUUUUUUU [5' CrcZ]		112 nM	no binding	
fhA1 leader RNA	61 nM			
mucA internal RNA	148 nM			
pprB leader RNA	227 nM			
pslA RNA (non-specific)	> 1000 nM			
